Laboratory results reported in the supplement of paper PMC5998384.

Tests used:
[1] = test system: HeLa Kyoto; assay: melting temperature (median over replicates), in situ; higher = more thermally stable
[2] = test system: HeLa Kyoto; assay: solubility change mitosis vs G1/S (difference of NP-40 vs SDS log2 ratios) (log2 ratio difference); higher = more soluble in mitosis
[3] = test system: HeLa Kyoto; assay: solubility in G1/S (NP-40 vs SDS abundance) (log2 ratio); higher = more soluble; settings: cell cycle stage: G1/S
[4] = test system: HeLa Kyoto; assay: thermal stability score vs G1/S (z-score of summed log2 fold changes over temperatures); higher = more thermally stable than in G1/S
[5] = cell cycle stage: early G1 (4.5 h after nocodazole release)
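Wherever melting temperature (median over replicates), in situ is given: HeLa Kyoto cells synchronized by double thymidine or nocodazole block, proteins quantified by TMT10plex mass spectrometry, three independent biological replicates.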
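Wherever solubility change mitosis vs G1/S (difference of NP-40 vs SDS log2 ratios) is given: synchronized HeLa Kyoto cells (double thymidine block for G1/S, nocodazole release for mitosis), protein amounts in NP-40 versus SDS lysates quantified by mass spectrometry, three biological replicates.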
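Wherever solubility in G1/S (NP-40 vs SDS abundance) is given: HeLa Kyoto cells arrested at G1/S by double thymidine block, proteins quantified by TMT10plex mass spectrometry in mild NP-40 versus SDS extracts, three biological replicates.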
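Wherever thermal stability score vs G1/S (z-score of summed log2 fold changes over temperatures) is given: synchronized HeLa Kyoto cells, proteins quantified by TMT10plex mass spectrometry, three biological replicates, mitosis taken 0.5 h after nocodazole release, G1/S directly after double thymidine block.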

UBE2Q1, sequence (chain, as listed by the source): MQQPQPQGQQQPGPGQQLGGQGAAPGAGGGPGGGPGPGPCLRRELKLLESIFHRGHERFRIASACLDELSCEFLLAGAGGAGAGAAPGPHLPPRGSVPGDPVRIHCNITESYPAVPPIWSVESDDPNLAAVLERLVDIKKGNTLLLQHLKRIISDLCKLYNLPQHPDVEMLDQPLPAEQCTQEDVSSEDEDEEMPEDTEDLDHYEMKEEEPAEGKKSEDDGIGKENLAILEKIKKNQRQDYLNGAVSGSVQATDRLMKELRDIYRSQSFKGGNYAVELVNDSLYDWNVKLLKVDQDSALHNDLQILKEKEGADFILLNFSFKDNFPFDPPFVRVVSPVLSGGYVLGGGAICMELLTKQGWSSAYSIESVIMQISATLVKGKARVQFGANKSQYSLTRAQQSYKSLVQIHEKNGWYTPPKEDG

Row | Substance | melting temperature ([1]; cell cycle stage: G1/S) [°C] | melting temperature ([1]; cell cycle stage: mitosis) [°C] | solubility change mitosis (log2) [2] | solubility in G1/S (log2) [3] | thermal stability score [4, 5] | thermal stability score ([4]; cell cycle stage: mitosis)
1 | MVGEEKMSLRNRLSKSRENPEEDEDQRNPAKESLETPSNGRIDIKQLIAKKIKLTAEAEELKPFFMKEVGSHFDDFVTNLIEKSASLDNGGCALTTFSVLEGEKNNHRAKDLRAPPEQGKIFIARRSLLDELLEVDHIRTIYHMFIALLILFILSTLVVDYIDEGRLVLEFSLLSYAFGKFPTVVWTWWIMFLSTFSVPYFLFQHWATGYSKSSHPLIRSLFHGFLFMIFQIGVLGFGPTYVVLAYTLPPASRFIIIFEQIRFVMKAHSFVRENVPRVLNSAKEKSSTVPIPTVNQYLYFLFAPTLIYRDSYPRNPTVRWGYVAMKFAQVFGCFFYVYYIFERLCAPLFRNIKQEPFSARVLVLCVFNSILPGVLILFLTFFAFLHCWLNAFAEMLRFGDRMFYKDWWNSTSYSNYYRTWNVVVHDWLYYYAYKDFLWFFSKRFKSAAMLAVFAVSAVVHEYALAVCLSFFYPVLFVLFMFFGMAFNFIVNDSRKKPIWNVLMWTSLFLGNGVLLCFYSQEWYARQHCPLKNPTFLDYVRPRSWTCRYVF [SOAT1] | 52.2 | 52 | -0.0778 | -0.292 | 0.192 | 0.0734
2 | MGDKIWLPFPVLLLAALPPVLLPGAAGFTPSLDSDFTFTLPAGQKECFYQPMPLKASLEIEYQVLDGAGLDIDFHLASPEGKTLVFEQRKSDGVHTVETEVGDYMFCFDNTFSTISEKVIFFELILDNMGEQAQEQEDWKKYITGTDILDMKLEDILESINSIKSRLSKSGHIQTLLRAFEARDRNIQESNFDRVNFWSMVNLVVMVVVSAIQVYMLKSLFEDKRKSRT [TMED5] | 54.2 | 55.5 | -0.206 | 0.107 | 2.08 | 1.93
3 | MAAEREPPPLGDGKPTDFEDLEDGEDLFTSTVSTLESSPSSPEPASLPAEDISANSNGPKPTEVVLDDDREDLFAEATEEVSLDSPEREPILSSEPSPAVTPVTPTTLIAPRIESKSMSAPVIFDRSREEIEEEANGDIFDIEIGVSDPEKVGDGMNAYMAYRVTTKTSLSMFSKSEFSVKRRFSDFLGLHSKLASKYLHVGYIVPPAPEKSIVGMTKVKVGKEDSSSTEFVEKRRAALERYLQRTVKHPTLLQDPDLRQFLESSELPRAVNTQALSGAGILRMVNKAADAVNKMTIKMNESDAWFEEKQQQFENLDQQLRKLHVSVEALVCHRKELSANTAAFAKSAAMLGNSEDHTALSRALSQLAEVEEKIDQLHQEQAFADFYMFSELLSDYIRLIAAVKGVFDHRMKCWQKWEDAQITLLKKREAEAKMMVANKPDKIQQAKNEIREWEAKVQQGERDFEQISKTIRKEVGRFEKERVKDFKTVIIKYLESLVQTQQQLIKYWEAFLPEAKAIA [SNX2] | 51.4 | 51.2 | -0.226 | 0.143 | 0.424 | -0.352
4 | MATGLGEPVYGLSEDEGESRILRVKVVSGIDLAKKDIFGASDPYVKLSLYVADENRELALVQTKTIKKTLNPKWNEEFYFRVNPSNHRLLFEVFDENRLTRDDFLGQVDVPLSHLPTEDPTMERPYTFKDFLLRPRSHKSRVKGFLRLKMAYMPKNGGQDEENSDQRDDMEHGWEVVDSNDSASQHQEELPPPPLPPGWEEKVDNLGRTYYVNHNNRTTQWHRPSLMDVSSESDNNIRQINQEAAHRRFRSRRHISEDLEPEPSEGGDVPEPWETISEEVNIAGDSLGLALPPPPASPGSRTSPQELSEELSRRLQITPDSNGEQFSSLIQREPSSRLRSCSVTDAVAEQGHLPPPSAPAGRARSSTVTGGEEPTPSVAYVHTTPGLPSGWEERKDAKGRTYYVNHNNRTTTWTRPIMQLAEDGASGSATNSNNHLIEPQIRRPRSLSSPTVTLSAPLEGAKDSPVRRAVKDTLSNPQSPQPSPYNSPKPQHKVTQSFLPPGWEMRIAPNGRPFFIDHNTKTTTWEDPRLKFPVHMRSKTSLNPNDLGPLPPGWEERIHLDGRTFYIDHNSKITQWEDPRLQNPAITGPAVPYSREFKQKYDYFRKKLKKPADIPNRFEMKLHRNNIFEESYRRIMSVKRPDVLKARLWIEFESEKGLDYGGVAREWFFLLSKEMFNPYYGLFEYSATDNYTLQINPNSGLCNEDHLSYFTFIGRVAGLAVFHGKLLDGFFIRPFYKMMLGKQITLNDMESVDSEYYNSLKWILENDPTELDLMFCIDEENFGQTYQVDLKPNGSEIMVTNENKREYIDLVIQWRFVNRVQKQMNAFLEGFTELLPIDLIKIFDENELELLMCGLGDVDVNDWRQHSIYKNGYCPNHPVIQWFWKAVLLMDAEKRIRLLQFVTGTSRVPMNGFAELYGSNGPQLFTIEQWGSPEKLPRAHTCFNRLDLPPYETFEDLREKLLMAVENAQGFEGVD [NEDD4L] | 50 | 49.6 | -0.189 | -0.0714 | 0.949 | 2.33
5 | RAB1B | 57.8 | 58 | -0.0321 | 0.0965 | -0.394 | -2.04
6 | MRPLPGALGVAAAAALWLLLLLLPRTRADEHEHTYQDKEEVVLWMNTVGPYHNRQETYKYFSLPFCVGSKKSISHYHETLGEALQGVELEFSGLDIKFKDDVMPATYCEIDLDKEKRDAFVYAIKNHYWYQMYIDDLPIWGIVGEADENGEDYYLWTYKKLEIGFNGNRIVDVNLTSEGKVKLVPNTKIQMSYSVKWKKSDVKFEDRFDKYLDPSFFQHRIHWFSIFNSFMMVIFLVGLVSMILMRTLRKDYARYSKEEEMDDMDRDLGDEYGWKQVHGDVFRPSSHPLIFSSLIGSGCQIFAVSLIVIIVAMIEDLYTERGSMLSTAIFVYAATSPVNGYFGGSLYARQGGRRWIKQMFIGAFLIPAMVCGTAFFINFIAIYYHASRAIPFGTMVAVCCICFFVILPLNLVGTILGRNLSGQPNFPCRVNAVPRPIPEKKWFMEPAVIVCLGGILPFGSIFIEMYFIFTSFWAYKIYYVYGFMMLVLVILCIVTVCVTIVCTYFLLNAEDYRWQWTSFLSAASTAIYVYMYSFYYYFFKTKMYGLFQTSFYFGYMAVFSTALGIMCGAIGYMGTSAFVRKIYTNVKID [TM9SF3] | 53.5 | 53.4 | -0.173 | -0.181 | 2.92 | 5.14
7 | ITPR1 | 49.8 | 50.2 | -0.0166 | -0.349 | 0.726 | 1.96
8 | MADGKAGDEKPEKSQRAGAAGGPEEEAEKPVKTKTVSSSNGGESSSRSAEKRSAEEEAADLPTKPTKISKFGFAIGSQTTKKASAISIKLGSSKPKETVPTLAPKTLSVAAAFNEDEDSEPEEMPPEAKMRMKNIGRDTPTSAGPNSFNKGKHGFSDNQKLWERNIKSHLGNVHDQDN [PCNP] | 59.4 | 53.8 | 0.0732 | 0.559 | -1.76 | -6.06
9 | ZMYM4 | 46 | 49.4 | 0.281 | -0.601 | 1.6 | 3.25
10 | MEEAELVKGRLQAITDKRKIQEEISQKRLKIEEDKLKHQHLKKKALREKWLLDGISSGKEQEEMKKQNQQDQHQIQVLEQSILRLEKEIQDLEKAELQISTKEEAILKKLKSIERTTEDIIRSVKVEREERAEESIEDIYANIPDLPKSYIPSRLRKEINEEKEDDEQNRKALYAMEIKVEKDLKTGESTVLSSIPLPSDDFKGTGIKVYDDGQKSVYAVSSNHSAAYNGTDGLAPVEVEELLRQASERNSKSPTEYHEPVYANPFYRPTTPQRETVTPGPNFQERIKIKTNGLGIGVNESIHNMGNGLSEERGNNFNHISPIPPVPHPRSVIQQAEEKLHTPQKRLMTPWEESNVMQDKDAPSPKPRLSPRETIFGKSEHQNSSPTCQEDEEDVRYNIVHSLPPDINDTEPVTMIFMGYQQAEDSEEDKKFLTGYDGIIHAELVVIDDEEEEDEGEAEKPSYHPIAPHSQVYQPAKPTPLPRKRSEASPHENTNHKSPHKNSISLKEQEESLGSPVHHSPFDAQTTGDGTEDPSLTALRMRMAKLGKKVI [PALMD] | 53.2 | 53.1 | 0.124 | 0.412 | -0.598 | 0.967
11 | UBE2Q1 | 50 | 50.3 | -0.042 | 0.255 | 0.426 | 0.875
12 | MDEDGLPLMGSGIDLTKVPAIQQKRTVAFLNQFVVHTVQFLNRFSTVCEEKLADLSLRIQQIETTLNILDAKLSSIPGLDDVTVEVSPLNVTSVTNGAHPEATSEQPQQNSTQDSGLQESEVSAENILTVAKDPRYARYLKMVQVGVPVMAIRNKMISEGLDPDLLERPDAPVPDGESEKTVEESSDSESSFSD [CCDC53] | 52.7 | – | -0.0689 | -0.349 | 0.159 | -0.73
13 | MAAPSGGVNCEEFAEFQELLKVMRTIDDRIVHELNTTVPTASFAGKIDASQTCKQLYESLMAAHASRDRVIKNCIAQTSAVVKNLREEREKNLDDLTLLKQLRKEQTKLKWMQSELNVEEVVNDRSWKVFNERCRIHFKPPKNE [CCDC58] | 53.3 | 52.6 | 0.251 | 0.6 | -0.935 | -0.43
14 | MGIKVQRPRCFFDIAINNQPAGRVVFELFSDVCPKTCENFRCLCTGEKGTGKSTQKPLHYKSCLFHRVVKDFMVQGGDFSEGNGRGGESIYGGFFEDESFAVKHNKEFLLSMANRGKDTNGSQFFITTKPTPHLDGHHVVFGQVISGQEVVREIENQKTDAASKPFAEVRILSCGELIPKSKVKKEEKKRHKSSSSSSSSSSDSDSSSDSQSSSDSSDSESATEEKSKKRKKKHRKNSRKHKKEKKKRKKSKKSASSESEAENLEAQPQSTVRPEEIPPIPENRFLMRKSPPKADEKERKNRERERERECNPPNSQPASYQRRLLVTRSGRKIKGRGPRRYRTPSRSRSRDRFRRSETPPHWRQEMQRAQRMRVSSGERWIKGDKSELNEIKENQRSPVRVKERKITDHRNVSESPNRKNEKEKKVKDHKSNSKERDIRRNSEKDDKYKNKVKKRAKSKSRSKSKEKSKSKERDSKHNRNEEKRMRSRSKGRDHENVKEKEKQSDSKGKDQERSRSKEKSKQLESKSNEHDHSKSKEKDRRAQSRSRECDITKGKHSYNSRTRERSRSRDRSRRVRSRTHDRDRSRSKEYHRYREQEYRRRGRSRSRERRTPPGRSRSKDRRRRRRDSRSSEREESQSRNKDKYRNQESKSSHRKENSESEKRMYSKSRDHNSSNNSREKKADRDQSPFSKIKQSSQDNELKSSMLKNKEDEKIRSSVEKENQKSKGQENDHVHEKNKKFDHESSPGTDEDKSG [PPIG] | 45.8 | 47.6 | 0.846 | -1.67 | 1.25 | 2.05
15 | MEKIPVSAFLLLVALSYTLARDTTVKPGAKKDTKDSRPKLPQTLSRGWGDQLIWTQTYEEALYKSKTSNKPLMIIHHLDECPHSQALKKVFAENKEIQKLAEQFVLLNLVYETTDKHLSPDGQYVPRIMFVDPSLTVRADITGRYSNRLYAYEPADTALLLDNMKKALKLLKTEL [AGR2] | 53.8 | 53.4 | 0.3 | 0.49 | 0.575 | -1.24
